Measurements: patent publication US12517112B2, “Immune cell organoid co-cultures” (Koninklijke Nederlandse Akademie van Wetenschappen, priority 2017, dated 2026)

What was measured:
CD274 (PD-L1) = assay: PD-L1 expression in colon organoid lines upon IFN-γ stimulation (qPCR and flow cytometry); type: cell-based; settings: organoids treated with 20 ng/mL recombinant human IFN-γ
Text: (§1) Cells were sorted as single cells into 96-well plates using a BD FACS Aria (BD Biosciences) cytometer. For flow cytometry, the following antibodies were used (all anti-human): CD8-PE (clone RPA-T8), CD45-PerCP-Cy5.5 (2D1), CD274 (PD-L1)-APC (MIH1) (all BD Biosciences), CD279 (PD-1)-PE (EH12.2H7, Biolegend), HLA-A2^− PE (BB7.2, Santa Cruz).

HLA-A2 = HLA-A2 expression on CRC organoid lines with and without IFN-γ stimulation (flow cytometry); type: cell-based; settings: HLA-A2 negative CRC organoids, 20 ng/ml recombinant human IFN-γ
Experimental: FIG. 10. HLA-A2 expression on clonally expanded HLA-A2^+ and HLA-A2^− CRC organoid lines. […] Flow cytometry analysis of HLA-A2 expression on normal (left panel), HLA-A2^+ CRC (middle panel) and HLA-A2^− CRC (right panel) lines with and without stimulation with 20 ng/ml recombinant human IFN-γ.
as §1

B1: IFN-γ: recombinant human interferon gamma used to stimulate organoids (20 ng/mL) (protein, UniProt P01579 24-161, looked up)
Interferon gamma: QDPYVKEAENLKKYFNAGHSDVADNGTLFLGILKNWKEESDRKIMQSQIVSFYFKLFKNFKDDQSIQKSVETIKEDMNVKFFNSNKKKRDDFEKLTNYSVTDLNVQRKAIHELIQVMAELSPAAKTGKRKRSQMLFRG
- PD-L1 expression on transcript and protein level (CD274 (PD-L1)): dramatically upregulated
- HLA-A2 re-expression (HLA-A2): did not trigger HLA-A2 re-expression
